Experimental data taken from publication PMC10754148 (Cell, 2023).

T1: 5/6FAM-F13ExonS synthetic peptide (5/6FAM on the N-terminus)
T1 peptide: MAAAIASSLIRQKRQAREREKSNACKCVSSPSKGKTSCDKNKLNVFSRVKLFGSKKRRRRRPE

B1: FLAG-LRR recombinant protein (LRR domain of LRRC37B, amino acids 468-841) (domain or fragment)
chain: AAAEKTRAPHPDQVQTLHRSLTEVTGPPTKLESSQDSLVQSETAPEEQKASTSTNICELCTCGDETLSCVGLSPKQRLRQVPVPEPDTYNGIFTTLNFQGNYISYLDGNVWKAYSWTEKLILSENYLTELPKDSFEGLLYLQYLDLSCNKIRYIERQTFESLPFLQYINLGCNLITKLSLGTFQAWHGMQFLHNLILNRNPLTTVEDPYLFELPALKYLDMGTTHITLTTLKNILTMTVELEKLILPSHMACCLCQFKNSIEAVCKTVKLHCNTACLTNSIHCPEEASVGNPEGAFMKMLQARKQHMSTQLTIESEAPSDSSGINLSGFGGDQLEIQLTEQLRSLIPNEDVRKFMSHVIRTLKMECSETHVQGSCAKLSTG
B2: F13ExonS-biotin synthetic peptide (peptide)
peptide: T1 peptide
modifications: not fully specified (C-terminus)

Assays:
[1] = target: T1, 5/6FAM-F13ExonS synthetic peptide; test: fluorescence polarisation
[2] = target: Nav1.6 (SCN8A), transfected cDNA (UniProt Q9UQD0 1-1980); test: cell-surface binding assay
Sequence of Nav1.6 (SCN8A), transfected cDNA (Q9UQD0 whole entry, the tested form may be a part): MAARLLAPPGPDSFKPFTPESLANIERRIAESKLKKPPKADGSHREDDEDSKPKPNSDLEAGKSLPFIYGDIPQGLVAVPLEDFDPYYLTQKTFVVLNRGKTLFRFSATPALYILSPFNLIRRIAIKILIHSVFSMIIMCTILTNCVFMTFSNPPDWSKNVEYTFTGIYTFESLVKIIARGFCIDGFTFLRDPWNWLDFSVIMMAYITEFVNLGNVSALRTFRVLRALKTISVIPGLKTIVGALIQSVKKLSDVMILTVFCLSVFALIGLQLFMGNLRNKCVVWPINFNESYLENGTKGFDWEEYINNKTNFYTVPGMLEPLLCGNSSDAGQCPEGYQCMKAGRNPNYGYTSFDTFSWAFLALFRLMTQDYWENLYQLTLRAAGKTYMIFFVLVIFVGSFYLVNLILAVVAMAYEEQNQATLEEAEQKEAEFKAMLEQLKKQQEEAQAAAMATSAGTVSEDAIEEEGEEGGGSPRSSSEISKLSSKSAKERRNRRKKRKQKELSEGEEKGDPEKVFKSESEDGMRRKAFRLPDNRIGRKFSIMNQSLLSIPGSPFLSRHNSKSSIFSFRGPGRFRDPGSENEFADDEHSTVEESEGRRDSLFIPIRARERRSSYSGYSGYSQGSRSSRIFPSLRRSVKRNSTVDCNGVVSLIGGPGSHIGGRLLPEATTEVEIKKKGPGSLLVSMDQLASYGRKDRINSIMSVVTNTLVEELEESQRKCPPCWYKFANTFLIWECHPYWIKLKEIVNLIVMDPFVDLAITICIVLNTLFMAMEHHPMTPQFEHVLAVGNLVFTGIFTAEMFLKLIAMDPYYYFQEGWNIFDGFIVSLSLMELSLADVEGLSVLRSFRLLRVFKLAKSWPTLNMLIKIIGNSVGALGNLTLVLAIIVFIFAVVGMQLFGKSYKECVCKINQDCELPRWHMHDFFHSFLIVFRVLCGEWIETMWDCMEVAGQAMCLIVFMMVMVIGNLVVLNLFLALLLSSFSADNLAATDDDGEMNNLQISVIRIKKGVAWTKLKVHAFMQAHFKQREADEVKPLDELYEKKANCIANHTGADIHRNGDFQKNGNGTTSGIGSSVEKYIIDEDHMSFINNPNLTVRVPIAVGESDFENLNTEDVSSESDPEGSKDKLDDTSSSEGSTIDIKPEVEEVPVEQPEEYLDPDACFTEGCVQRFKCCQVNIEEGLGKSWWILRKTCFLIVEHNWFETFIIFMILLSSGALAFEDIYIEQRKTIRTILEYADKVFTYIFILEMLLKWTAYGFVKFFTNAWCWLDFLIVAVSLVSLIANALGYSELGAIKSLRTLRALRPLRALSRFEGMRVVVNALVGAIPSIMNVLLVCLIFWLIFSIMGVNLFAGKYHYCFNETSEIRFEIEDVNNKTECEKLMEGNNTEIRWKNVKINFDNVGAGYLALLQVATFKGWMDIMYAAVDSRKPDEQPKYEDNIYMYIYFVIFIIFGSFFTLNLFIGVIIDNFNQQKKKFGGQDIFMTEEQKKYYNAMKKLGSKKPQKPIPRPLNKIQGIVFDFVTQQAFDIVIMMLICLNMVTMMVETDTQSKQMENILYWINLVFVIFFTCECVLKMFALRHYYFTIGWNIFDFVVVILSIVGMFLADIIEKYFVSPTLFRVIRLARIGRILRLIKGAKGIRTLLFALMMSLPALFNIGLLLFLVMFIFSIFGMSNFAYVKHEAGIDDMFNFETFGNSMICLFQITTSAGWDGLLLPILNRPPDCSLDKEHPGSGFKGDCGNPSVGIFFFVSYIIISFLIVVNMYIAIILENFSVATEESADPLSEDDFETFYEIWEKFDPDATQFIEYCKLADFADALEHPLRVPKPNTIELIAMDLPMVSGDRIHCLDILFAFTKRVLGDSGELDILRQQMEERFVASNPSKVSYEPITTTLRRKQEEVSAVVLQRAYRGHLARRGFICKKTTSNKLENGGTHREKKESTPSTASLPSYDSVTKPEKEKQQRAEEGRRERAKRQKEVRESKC

[3] = target: pdisplay-LRRC37B_ECTO (amino acids 28-905) (human, UniProt Q96QE4 28-905); test: cell-surface binding assay
Sequence of pdisplay-LRRC37B_ECTO (amino acids 28-905) (Q96QE4 28-905): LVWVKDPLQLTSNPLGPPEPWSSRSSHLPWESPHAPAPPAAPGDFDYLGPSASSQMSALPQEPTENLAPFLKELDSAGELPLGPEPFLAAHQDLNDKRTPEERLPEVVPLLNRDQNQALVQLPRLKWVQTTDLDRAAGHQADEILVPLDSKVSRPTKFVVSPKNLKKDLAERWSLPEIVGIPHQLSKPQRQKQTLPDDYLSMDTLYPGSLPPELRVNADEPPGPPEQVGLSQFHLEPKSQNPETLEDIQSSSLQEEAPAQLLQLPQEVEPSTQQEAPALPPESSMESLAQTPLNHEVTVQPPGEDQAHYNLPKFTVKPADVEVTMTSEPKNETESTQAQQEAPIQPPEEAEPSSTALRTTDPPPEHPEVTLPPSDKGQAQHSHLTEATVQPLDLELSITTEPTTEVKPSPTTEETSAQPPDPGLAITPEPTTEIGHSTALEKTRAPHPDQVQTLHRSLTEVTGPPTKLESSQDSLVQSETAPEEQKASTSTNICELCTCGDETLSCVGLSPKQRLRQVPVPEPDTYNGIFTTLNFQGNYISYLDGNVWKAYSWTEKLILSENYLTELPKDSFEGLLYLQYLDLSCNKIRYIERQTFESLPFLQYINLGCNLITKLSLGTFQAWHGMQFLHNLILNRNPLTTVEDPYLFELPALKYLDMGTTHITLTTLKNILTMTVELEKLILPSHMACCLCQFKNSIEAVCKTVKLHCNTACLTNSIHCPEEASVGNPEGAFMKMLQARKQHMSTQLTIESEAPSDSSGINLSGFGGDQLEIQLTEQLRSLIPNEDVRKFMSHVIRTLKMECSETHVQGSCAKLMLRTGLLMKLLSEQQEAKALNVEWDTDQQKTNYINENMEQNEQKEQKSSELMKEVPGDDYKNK

[4] = target: pdisplay-LRRC37B-LRR_ECTO (amino acids 468-841) (human, UniProt Q96QE4 468-841); test: cell-surface binding assay

Row | Binder | Kd [1] [nM] | Kd [2] [nM] | Kd [3] [nM] | Kd [4] [nM]
1 | B1 | 530 | – | – | –
2 | B2 | – | 49.83 ± 0.261 | 1.1 ± 0.261 | 1.18 ± 0.28
